Reference: patent publication US11053304 (CENTIVAX, dated 2021)
Substitutions are numbered along the chain they refer to. Read-outs that look alike come from different tables or passages of the source.

Columns and labels:
Experiment in all cases: SPR, scFv captured via anti-V5, RBD as analyte
[1] = biological target: T1, SARS-CoV-2 Receptor Binding Domain (RBD) protein (SARS-CoV-2, UniProt P0DTC2 319-541)
[2] = biological target: SARS-CoV-1 Receptor Binding Domain (RBD) protein (SARS-CoV-1, UniProt P59594 306-527)
[3] = biological target: MERS Receptor Binding Domain (RBD) protein (MERS coronavirus, UniProt K9N5Q8 367-606)
[4] = biological target: T1, SARS-CoV-2 Receptor Binding Domain …; remark: listed apart in the source

B1: COVID19_P07_G06 (scFv, V domains shown)
VH: EVQLVESGGGLVQPGGSLRLSCAASGFTFSSYAMHWVRQAPGKGLEWVSAIGAGGGTYYADSVKGRFTISRDNSKNTLYLQMNSLRAEDTAVYYCVTNLDNSRDYFPHYFHDMDVWGQGTLVTVSS
VL: DIVMTQSPLSLPVTPGEPASISCRSSQSLLHSNGYNYLDWYLQKPGQSPQLLIYGASTRATGVPDRFSGSGSGTDFTLKISRVEAEDVGVYYCMQTLQTPRFGGGTKVEIKR
- Kd [1]: < 0.05 µM
- binding result [2]: no binding (tested: up to 300 nM)
- binding result [3]: no binding (tested: up to 300 nM)
- Kd [4]: 0.0016 µM
- koff [4]: 5.7e-05 s⁻¹
- kon [4]: 36300 M⁻¹ s⁻¹

B2: COVID19_P20_G06 (scFv, V domains shown)
VH: EVQLVESGGGLVQPGGSLRLSCAASGFTFSNSDMNWVRQAPGKGLEWVSGISGGGAGTYYADSVKGRFTISRDNSKNTLYLQMNSLRAEDTAVYYCVTYRDNSRDYFPHYFHDMDVWGQGTLVTVSS
VL: DIVMTQSPLSLPVTPGEPASISCRSSQSLVHSNGDTYLDWYLQKPGQSPQLLIYLGSIRAPGVPDRFSGSGSGTDFTLKISRVEAEDVGVYYCQQSYSTPWTFGGGTKVEIKR
- Kd [1]: < 0.05 µM
- binding result [2]: no binding (tested: up to 300 nM)
- binding result [3]: no binding (tested: up to 300 nM)
- Kd [4]: 0.00895 µM
- koff [4]: 0.000834 s⁻¹
- kon [4]: 93200 M⁻¹ s⁻¹

B3: COVID19_P19_B04 (scFv, V domains shown)
VH: EVQLVESGGGLVQPGGSLRLSCAASGITFNNYAMTWVRQAPGKGLEWVSGISGSGGSTYYADSVKGRFTISRDNSRNTLYLQMNSLRAEDTAVYYCVTQRDNPVDYFPHYFHDMDVWGQGTLVTVSS
VL: B2 VL with V30L, H31Y, N33D, Q94M, S96A, Y97L, S98Q, T99V
- Kd [1]: < 0.05 µM
- binding result [2]: no binding (tested: up to 300 nM)
- binding result [3]: no binding (tested: up to 300 nM)
- Kd [4]: 0.022 µM
- koff [4]: 0.00795 s⁻¹
- kon [4]: 361000 M⁻¹ s⁻¹

B4: COVID19_P19_B09 (scFv, V domains shown)
VH: EVQLVESGGGLVQPGGSLRLSCAASGFTFSSHTIAWVRQAPGKGLEWLSHISSSGSTTYYADSVKGRFTISRDNSKNTLYLQMNSLRAEDTAVYYCVTQRDNSRDMSPHYFHDMDVWGQGTLVTVSS
VL: B2 VL with V30L, H31D, D35F, T36N, I58S, S98N
- Kd [1]: < 0.05 µM
- binding result [2]: no binding (tested: up to 300 nM)
- binding result [3]: no binding (tested: up to 300 nM)
- Kd [4]: 0.0159 µM
- koff [4]: 0.00313 s⁻¹
- kon [4]: 197000 M⁻¹ s⁻¹

B5: COVID19_P20_C11 (scFv, V domains shown)
VH: B2 VH with N31S, S32Y, D33S, G54S, A56D, G57R, V97S, T98M, Y99Q
VL: B2 VL with V30L, H31Y, N33D, Q94M, Y97V, S98Q
- Kd [1]: < 0.05 µM
- binding result [2]: no binding (tested: up to 300 nM)
- binding result [3]: no binding (tested: up to 300 nM)
- Kd [4]: 0.00294 µM
- koff [4]: 0.000607 s⁻¹
- kon [4]: 207000 M⁻¹ s⁻¹

B6: COVID19_P19_E01 (scFv, V domains shown)
VH: EVQLVESGGGLVQPGGSLRLSCAASGFTFSSYAMHWVRQAPGKGLEWVAVVSRSGGSTFYADSVKGRFTISRDNSKNTLYLQMNSLRAEDTAVYYCVTQRDNSRDYFPHYFHDMDVWGQGTLVTVSS
VL: B2 VL
- Kd [1]: < 0.05 µM
- binding result [2]: no binding (tested: up to 300 nM)
- binding result [3]: no binding (tested: up to 300 nM)
- Kd [4]: 0.0417 µM
- koff [4]: 0.00644 s⁻¹
- kon [4]: 155000 M⁻¹ s⁻¹

B7: COVID19_P19_C03 (scFv, V domains shown)
VH: B2 VH with G50R, S52N, G54D, A56S, G57T, Y59G, Y99T, R100G
VL: B2 VL with V30L, S98I
- Kd [1]: < 0.05 µM
- binding result [2]: no binding (tested: up to 300 nM)
- binding result [3]: no binding (tested: up to 300 nM)
- Kd [4]: 0.0353 µM
- koff [4]: 0.0058 s⁻¹
- kon [4]: 164000 M⁻¹ s⁻¹

B8: COVID19_P20_F02 (scFv, V domains shown)
VH: EVQLVESGGGLVQPGGSLRLSCAASGFAFSNYGMHWIRQAPGKGLEWVSGIDGSGGTAHYADSVKGRFTISRDNSKNTLYLQMNSLRAEDTAVYYCVTNMDNSRDYFPHYFHDMDVWGQGTLVTVSS
VL: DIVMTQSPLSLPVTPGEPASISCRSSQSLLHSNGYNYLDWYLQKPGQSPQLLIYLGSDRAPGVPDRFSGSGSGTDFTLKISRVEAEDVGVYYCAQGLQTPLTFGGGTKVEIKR
- Kd [1]: < 0.05 µM
- binding result [2]: no binding (tested: up to 300 nM)
- binding result [3]: no binding (tested: up to 300 nM)
- Kd [4]: 0.0178 µM
- koff [4]: 0.00081 s⁻¹
- kon [4]: 45500 M⁻¹ s⁻¹

B9: COVID19_P19_F02 (scFv, V domains shown)
VH: B8 VH with A28T, N31S, I37V, G50A, I51Y, D52S, T57Y, A58T, H59Y, Y60F
VL: DIVMTQSPLSLPVTPGEPASISCKSSQSLLHINGFNYLDWFLQKPGQSPQLLIYLGSNRAPGVPDRFSGSGSGTDFTLKISRVEAEDVGVYYCQQSLQNPRTFGGGTKVEIKR
- Kd [1]: < 0.05 µM
- binding result [2]: no binding (tested: up to 300 nM)
- binding result [3]: no binding (tested: up to 300 nM)
- Kd [4]: 0.0361 µM
- koff [4]: 0.00384 s⁻¹
- kon [4]: 106000 M⁻¹ s⁻¹

B10: COVID19_P08_D04 (scFv, V domains shown)
VH: B8 VH with A28I, N31S, G33A, H35N, I37V, D52S, T57G, H59Y, M100L
VL: DIVMTQSPLSLPVTPGEPASISCRSSQSLLQSNGYNYMDWYLQKPGQSPQLLIYLTSNRAAGVPDRFSGSGSGTDFTLKISRVEAEDVGVYYCQQSYGPPLTFGGGTKVEIKR
- Kd [1]: < 0.05 µM
- binding result [2]: no binding (tested: up to 300 nM)
- binding result [3]: no binding (tested: up to 300 nM)
- Kd [4]: 0.00086 µM
- koff [4]: 5.7e-05 s⁻¹
- kon [4]: 66000 M⁻¹ s⁻¹

B11: COVID19_P07_F10 (scFv, V domains shown)
VH: B8 VH with A28T, N31S, I37V, I51V, D52S, G53A, T57G, A58P, H59Y
VL: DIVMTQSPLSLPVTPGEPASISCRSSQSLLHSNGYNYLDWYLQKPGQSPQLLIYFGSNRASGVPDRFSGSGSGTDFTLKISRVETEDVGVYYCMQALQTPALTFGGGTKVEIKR
- Kd [1]: < 0.05 µM
- binding result [2]: no binding (tested: up to 300 nM)
- binding result [3]: no binding (tested: up to 300 nM)
- Kd [4]: 0.00805 µM
- koff [4]: 0.000483 s⁻¹
- kon [4]: 60000 M⁻¹ s⁻¹

B12: COVID19_P08_G02 (scFv, V domains shown)
VH: B8 VH with A28T, N31S, G50A, I51V, D52S, G53A, G56D, T57R, A58T, M100L
VL: DIVMTQSPLSLPVTPGEPASISCRSSQSLVHSDGYTYLNWYLQKPGQSPQLLIYVGSYRASGVPDRFSGSGSGTDFTLKISRVEAEDVGVYYCMQASQWPPTFGGGTKVEIKR
- Kd [1]: < 0.05 µM
- binding result [2]: no binding (tested: up to 300 nM)
- binding result [3]: no binding (tested: up to 300 nM)
- Kd [4]: 0.00271 µM
- koff [4]: 0.0001 s⁻¹
- kon [4]: 38000 M⁻¹ s⁻¹

B13: COVID19_P08_G07 (scFv, V domains shown)
VH: B8 VH with A28T, N31T, I37V, G50T, D52S, S54N, G56V, T57S, A58T, H59S
VL: DIVMTQSPLSLPVTPGEPASISCRSSQSLVYSDGYTYLNWYLQKPGQSPQLLIYQVSNRASGVPDRFSGSGSGTDFTLKISRVEAEDVGVYYCMQALQTPALTFGGGTKVEIKR
- Kd [1]: < 0.05 µM
- binding result [2]: no binding (tested: up to 300 nM)
- binding result [3]: no binding (tested: up to 300 nM)
- Kd [4]: 0.0106 µM
- koff [4]: 0.00072 s⁻¹
- kon [4]: 68000 M⁻¹ s⁻¹

B14: COVID19_P20_A11 (scFv, V domains shown)
VH: B6 VH with A49S, V50A, V51I, R53G, G56D, S57N, F59Y, Q99N, R100M
VL: not shown
- Kd [1]: < 0.05 µM
- binding result [2]: no binding (tested: up to 300 nM)
- binding result [3]: no binding (tested: up to 300 nM)
- Kd [4]: 0.0202 µM
- koff [4]: 0.000872 s⁻¹
- kon [4]: 43100 M⁻¹ s⁻¹

B15: COVID19_P19_C08 (scFv, V domains shown)
VH: EVQLVESGGGLVQPGGSLRLSCAASGFTFSSYAMHWVRQAPGKGLEWVSAISASSAGAYYADSVKGRFTISRDNSKNTLYLQMNSLRAEDTAVYYCVTNMDNSRDYFPHYFHDMDVWGQGTLVTVSS
VL: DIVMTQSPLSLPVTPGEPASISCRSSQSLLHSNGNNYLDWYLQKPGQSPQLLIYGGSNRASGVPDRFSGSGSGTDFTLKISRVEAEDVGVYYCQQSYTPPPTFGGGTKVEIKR
- Kd [1]: < 0.05 µM
- binding result [2]: no binding (tested: up to 300 nM)
- binding result [3]: no binding (tested: up to 300 nM)
- Kd [4]: 0.0276 µM
- koff [4]: 0.0047 s⁻¹
- kon [4]: 170000 M⁻¹ s⁻¹

B16: COVID19_P07_F01 (scFv, V domains shown)
VH: B6 VH with A49S, V50A, S52G, R53D, G56R, F59Y, Q99N, R100L
VL: not shown
- Kd [1]: < 0.05 µM
- binding result [2]: no binding (tested: up to 300 nM)
- binding result [3]: no binding (tested: up to 300 nM)
- Kd [4]: 0.0008 µM
- koff [4]: 5.7e-05 s⁻¹
- kon [4]: 68000 M⁻¹ s⁻¹

B17: COVID19_P08_D09 (scFv, V domains shown)
VH: B6 VH with S31T, V51I, R53Y, S54D, G56N, S57Y, T58Q, F59Y, Q99N, R100L
VL: not shown
- Kd [1]: < 0.05 µM
- binding result [2]: no binding (tested: up to 300 nM)
- binding result [3]: no binding (tested: up to 300 nM)
- Kd [4]: 0.0015 µM
- koff [4]: 5.7e-05 s⁻¹
- kon [4]: 38000 M⁻¹ s⁻¹

B18: COVID19_P19_C12 (scFv, V domains shown)
VH: B15 VH with S30R, S31N, I51V, A53S, S55G, A56G, G57S, A58P
VL: B12 VL with Y35D, T36N, V55S, A96G, S97T, Q98H, P101L
- Kd [1]: < 0.05 µM
- binding result [2]: no binding (tested: up to 300 nM)
- binding result [3]: no binding (tested: up to 300 nM)

B19: COVID19_P07_A09 (scFv, V domains shown)
VH: EVQLVESGGGLVQPGGSLRLSCAASGFTFSSYGVHWVRQAPGKGLEWVAVISHDGKKKYYADSVKGRFTISRDNSKNTLYLQMNSLRAEDTAVYYCVTNVDNSRDYFPHYFHDMDVWGQGTLVTVSS
VL: not shown
- Kd [1]: < 0.05 µM
- binding result [2]: no binding (tested: up to 300 nM)
- binding result [3]: no binding (tested: up to 300 nM)
- Kd [4]: 0.0015 µM
- koff [4]: 5.7e-05 s⁻¹
- kon [4]: 39100 M⁻¹ s⁻¹
